Assay results reported in patent publication US20200399358A1 (Sanofi, published 2020).
Substitutions are numbered along the chain they refer to.

Experiments:
murine TGF-β2 [1] = biological target: T1, murine TGF-β2 (mouse, UniProt P27090 303-414); experiment: cell-based or functional assay
T1 sequence (looked up): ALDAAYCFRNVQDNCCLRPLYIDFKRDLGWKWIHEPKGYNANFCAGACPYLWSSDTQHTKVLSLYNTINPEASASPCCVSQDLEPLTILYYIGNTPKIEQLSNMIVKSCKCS

human TGF-β1 [2] = biological target: T2, human TGF-β1 (human, UniProt P01137 279-390); experiment: cell-based or functional assay
T2 sequence (P01137 279-390 limits assumed): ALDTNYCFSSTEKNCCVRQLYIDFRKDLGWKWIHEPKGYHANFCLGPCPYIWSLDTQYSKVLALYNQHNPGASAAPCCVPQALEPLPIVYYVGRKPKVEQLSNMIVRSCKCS

murine TGF-β2 [3] = biological target: T1, murine TGF-β2; experiment: SPR (Biacore T200), Ab1 injected over immobilized TGF-β homodimer, 1:1 model
Description: (§1) The affinity of Ab1 for all human and murine TGF-β isoforms was determined by surface plasmon resonance on a Biacore T200 Biosensor instrument (GE Healthcare) using a dextran-coated carboxy-methylated (CM5) series S chip. Ab1 at a series of concentrations (1.11, 3.33, 10, and 30 nM) was injected onto immobilized recombinant TGF-β to measure the binding interaction in real time. The TGF-β homodimers were immobilized at a low density to reduce avidity effects. Injections were performed in triplicate and the binding assay was repeated three times. The data from the kinetic experiments were processed using the Biacore T200 Biaevaluation v2.0 software. Resulting sensorgrams were zeroed, aligned, double referenced, and cropped for curve fitting analysis using a 1:1 binding model to determine association rate constant (kₐ), dissociation rate constant (kd), and equilibrium dissociation constant (KD).

murine TGF-β1 [4] = biological target: T3, murine TGF-β1 (mouse, UniProt P04202 279-390); experiment: as above
T3 construct: mature; Bought from R&D Systems; also called Murine and Rat TGF-β1; murine/rat TGF-β1
T3 sequence (P04202 279-390 limits assumed): as the sequence (P01137 279-390 limits assumed) above, with A75S counted along it
Description: as §1

human TGF-β3 [5] = biological target: T4, human TGF-β3 (human, UniProt P10600 301-412); experiment: as above
T4 construct: mature; Produced internally; Human protein was measured; also called Human and Murine TGF-β3
T4 sequence (looked up): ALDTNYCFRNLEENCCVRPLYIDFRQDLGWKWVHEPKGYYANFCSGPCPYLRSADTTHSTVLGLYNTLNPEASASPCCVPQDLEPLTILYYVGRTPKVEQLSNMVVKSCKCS
Description: as §1

human TGF-β1 [6] = biological target: T2, human TGF-β1; experiment: as above
Description: as §1

human TGF-β2 [7] = biological target: T5, human TGF-β2 (human, UniProt P61812 303-414); experiment: as above
T5 construct: mature; Produced internally
T5 sequence (looked up): T1 sequence (looked up) with T59S, K60R, N94K
Description: as §1

human TGF-β3 [8] = biological target: T4, human TGF-β3; experiment: cell-based or functional assay
human TGF-β2 [9] = biological target: T5, human TGF-β2; experiment: cell-based or functional assay
murine TGF-β1 [10] = biological target: T3, murine TGF-β1; experiment: cell-based or functional assay
human TGF-β1 [11] = biological target: T2, human TGF-β1; experiment: cell-based or functional assay; remark: listed apart in the source

B1: Ab1 (antibody, human IgG4 S228P, kappa)
heavy: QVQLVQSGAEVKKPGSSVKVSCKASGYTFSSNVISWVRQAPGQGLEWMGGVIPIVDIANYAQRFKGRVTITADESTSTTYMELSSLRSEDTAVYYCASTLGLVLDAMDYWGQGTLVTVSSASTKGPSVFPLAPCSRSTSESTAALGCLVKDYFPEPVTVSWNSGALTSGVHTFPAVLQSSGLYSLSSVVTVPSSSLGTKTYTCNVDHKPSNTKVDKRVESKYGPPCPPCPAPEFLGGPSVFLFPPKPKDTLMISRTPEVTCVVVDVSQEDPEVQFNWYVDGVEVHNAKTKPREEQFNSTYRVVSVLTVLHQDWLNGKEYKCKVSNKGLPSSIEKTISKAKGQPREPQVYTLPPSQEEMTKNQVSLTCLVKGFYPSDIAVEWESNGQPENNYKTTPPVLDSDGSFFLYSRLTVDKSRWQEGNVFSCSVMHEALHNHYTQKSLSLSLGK
light: ETVLTQSPGTLSLSPGERATLSCRASQSLGSSYLAWYQQKPGQAPRLLIYGASSRAPGIPDRFSGSGSGTDFTLTISRLEPEDFAVYYCQQYADSPITFGQGTRLEIKRTVAAPSVFIFPPSDEQLKSGTASVVCLLNNFYPREAKVQWKVDNALQSGNSQESVTEQDSKDSTYSLSSTLTLSKADYEKHKVYACEVTHQGLSSPVTKSFNRGEC
notes: Human IgG4 with proline at position 228 (EU numbering); also called anti-TGF-β antibody Ab1
EC50 (read off the curve); neutralisation, Mv 1 Lu proliferation with 1 ng/ml TGF-β (murine TGF-β2 [1]): ~9 µg/mL
fold change of luciferase activity against isotype control Ab (639440 RLU) (human TGF-β1 [2]): 1.45 fold
fold change of luciferase activity against no Ab control (638866 RLU) (human TGF-β1 [2]): 1.45 fold
Kd (murine TGF-β2 [3]): 1.88 nM
koff (murine TGF-β2 [3]): 0.000645 s⁻¹
kon (murine TGF-β2 [3]): 348000 M⁻¹ s⁻¹
Kd (murine TGF-β1 [4]): 2.8 nM
koff (murine TGF-β1 [4]): 0.000835 s⁻¹
kon (murine TGF-β1 [4]): 298000 M⁻¹ s⁻¹
Kd (human TGF-β3 [5]): 1.65 nM
koff (human TGF-β3 [5]): 0.000372 s⁻¹
kon (human TGF-β3 [5]): 223000 M⁻¹ s⁻¹
Kd (human TGF-β1 [6]): 1.48 nM
koff (human TGF-β1 [6]): 0.000343 s⁻¹
kon (human TGF-β1 [6]): 311000 M⁻¹ s⁻¹
Kd (human TGF-β2 [7]): 3 nM
koff (human TGF-β2 [7]): 0.000823 s⁻¹
kon (human TGF-β2 [7]): 286000 M⁻¹ s⁻¹
EC50 (read off the curve); neutralisation, Mv 1 Lu proliferation with 1 ng/ml TGF-β (human TGF-β3 [8]): ~2 µg/mL
EC50 (read off the curve); neutralisation, Mv 1 Lu proliferation with 1 ng/ml TGF-β (human TGF-β2 [9]): ~4 µg/mL
EC50 (read off the curve); neutralisation, Mv 1 Lu proliferation with 1 ng/ml TGF-β (murine TGF-β1 [10]): ~0.6 µg/mL

B2: 1D11 (antibody, mouse IgG1, kappa, V domains shown)
VH: HVQLQQSGPELVRPGASVKLSCKASGYIFITYWMNWVKQRPGQGLEWIGQIFPASGSTNYNEMFEGKATLTVDTSSSTAYMQLSSLTSEDSAVYYCARGDGNYALDAMDYWGQGTSVTVSS
VL: NIVLTQSPASLAVSLGQRATISCRASESVDSYGNSFMHWYQQKSGQPPKLLIYLASNLESGVPARFSGSGSRTDFTLTIDPVEADDAATYYCQQNNEDPLTFGAGTKLELKR
EC50 (read off the curve); neutralisation, Mv 1 Lu proliferation with 1 ng/ml TGF-β (human TGF-β1 [11]): ~7 µg/mL
EC50 (read off the curve); neutralisation, Mv 1 Lu proliferation with 1 ng/ml TGF-β (human TGF-β3 [8]): ~0.4 µg/mL
EC50 (read off the curve); neutralisation, Mv 1 Lu proliferation with 1 ng/ml TGF-β (human TGF-β2 [9]): ~6 µg/mL
EC50 (read off the curve); neutralisation, Mv 1 Lu proliferation with 1 ng/ml TGF-β (murine TGF-β1 [10]): ~4 µg/mL

B3: fresolimumab (antibody, human IgG4, kappa)
heavy: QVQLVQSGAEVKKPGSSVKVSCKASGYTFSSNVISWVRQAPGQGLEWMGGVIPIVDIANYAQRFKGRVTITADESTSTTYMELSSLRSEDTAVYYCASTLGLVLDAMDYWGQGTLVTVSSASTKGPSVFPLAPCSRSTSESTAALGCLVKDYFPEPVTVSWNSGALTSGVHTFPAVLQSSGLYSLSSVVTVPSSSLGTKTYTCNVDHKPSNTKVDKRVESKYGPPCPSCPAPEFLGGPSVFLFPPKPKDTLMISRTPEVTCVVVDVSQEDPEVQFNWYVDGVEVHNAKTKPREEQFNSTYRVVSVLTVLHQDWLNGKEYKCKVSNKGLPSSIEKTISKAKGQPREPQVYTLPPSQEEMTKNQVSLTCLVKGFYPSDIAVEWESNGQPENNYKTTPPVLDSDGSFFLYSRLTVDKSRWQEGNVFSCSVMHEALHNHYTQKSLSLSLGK
light: B1 light
EC50 (read off the curve); neutralisation, Mv 1 Lu proliferation with 1 ng/ml TGF-β (murine TGF-β2 [1]): ~9 µg/mL
EC50 (read off the curve); neutralisation, Mv 1 Lu proliferation with 1 ng/ml TGF-β (human TGF-β3 [8]): ~2 µg/mL
EC50 (read off the curve); neutralisation, Mv 1 Lu proliferation with 1 ng/ml TGF-β (human TGF-β2 [9]): ~5 µg/mL
EC50 (read off the curve); neutralisation, Mv 1 Lu proliferation with 1 ng/ml TGF-β (murine TGF-β1 [10]): ~0.6 µg/mL
